Substitutions are numbered along the chain they refer to.
How the values were obtained:
P450sca-2 (CYP105A3) = target: T1, P450sca-2 (CYP105A3) (Streptomyces carbophilus, UniProt Q59831); assay: HPLC/HRMS of products, reconstituted system; assay type: biochemical; settings: SelFdx1499/SelFdR0978 as redox partners (1:10:5), NADP+ with regeneration, pH 7.4, 30 °C, 2 h
T1 construct: His-tagged, expressed in E. coli, Ni-NTA purified
T1 sequence (Q59831 2-410): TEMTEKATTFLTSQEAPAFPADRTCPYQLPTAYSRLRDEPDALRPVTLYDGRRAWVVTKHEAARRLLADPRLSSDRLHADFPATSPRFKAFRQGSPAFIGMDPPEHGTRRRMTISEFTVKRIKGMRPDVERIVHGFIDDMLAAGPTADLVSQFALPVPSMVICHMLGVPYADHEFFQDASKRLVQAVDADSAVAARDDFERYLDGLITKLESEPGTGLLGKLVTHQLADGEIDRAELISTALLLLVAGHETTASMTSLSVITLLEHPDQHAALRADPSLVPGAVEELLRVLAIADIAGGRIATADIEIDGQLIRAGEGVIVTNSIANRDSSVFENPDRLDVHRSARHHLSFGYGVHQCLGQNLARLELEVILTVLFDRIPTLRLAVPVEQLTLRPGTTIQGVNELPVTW

[1] = target: T2, PdR (putidaredoxin reductase) (Pseudomonas putida, UniProt P16640); assay: DCIP reduction, absorbance at […] nm; assay type: biochemical; settings: 30 °C
T2 construct: gene camA; His-tagged, expressed in E. coli, Ni-NTA purified
T2 sequence (P16640 1-422): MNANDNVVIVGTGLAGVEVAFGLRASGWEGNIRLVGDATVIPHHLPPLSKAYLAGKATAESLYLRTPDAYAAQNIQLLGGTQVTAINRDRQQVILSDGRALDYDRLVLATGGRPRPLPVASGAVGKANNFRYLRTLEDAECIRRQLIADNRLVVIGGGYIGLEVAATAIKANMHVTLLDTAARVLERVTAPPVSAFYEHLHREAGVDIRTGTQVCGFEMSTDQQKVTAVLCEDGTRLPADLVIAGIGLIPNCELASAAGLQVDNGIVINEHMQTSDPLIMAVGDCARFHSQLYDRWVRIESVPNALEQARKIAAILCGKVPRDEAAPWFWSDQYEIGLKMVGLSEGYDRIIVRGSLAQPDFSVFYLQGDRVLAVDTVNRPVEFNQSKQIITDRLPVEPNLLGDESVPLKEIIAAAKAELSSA

[2] = target: T3, AdR (adrenodoxin reductase) (Bos taurus, UniProt P08165); assay: DCIP reduction, absorbance at […] nm; assay type: biochemical; settings: 30 °C
T3 construct: gene FDXR; C-terminal His-tag, expressed in E. coli; template plasmid pBAR-bAdR
T3 sequence (P08165 33-492): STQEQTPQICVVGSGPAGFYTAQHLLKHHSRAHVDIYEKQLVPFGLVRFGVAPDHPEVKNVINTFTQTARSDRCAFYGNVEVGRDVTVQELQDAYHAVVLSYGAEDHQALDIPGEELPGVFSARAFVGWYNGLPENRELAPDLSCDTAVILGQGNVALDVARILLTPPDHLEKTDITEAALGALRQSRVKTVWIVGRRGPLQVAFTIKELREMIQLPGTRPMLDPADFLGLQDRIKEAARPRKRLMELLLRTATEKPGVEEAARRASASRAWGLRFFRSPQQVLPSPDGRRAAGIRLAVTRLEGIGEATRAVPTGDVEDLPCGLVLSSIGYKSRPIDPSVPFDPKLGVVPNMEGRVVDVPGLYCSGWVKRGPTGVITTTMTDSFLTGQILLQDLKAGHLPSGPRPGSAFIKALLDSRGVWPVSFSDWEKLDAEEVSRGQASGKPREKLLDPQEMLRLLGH

SelFdR0978 [3] = target: T4, SelFdR0978 (Synechococcus elongatus, UniProt Q31PL1); assay: DCIP reduction, absorbance at […] nm; assay type: biochemical; settings: 30 °C
T4 construct: gene Synpcc7942_0978
T4 sequence (Q31PL1 1-403): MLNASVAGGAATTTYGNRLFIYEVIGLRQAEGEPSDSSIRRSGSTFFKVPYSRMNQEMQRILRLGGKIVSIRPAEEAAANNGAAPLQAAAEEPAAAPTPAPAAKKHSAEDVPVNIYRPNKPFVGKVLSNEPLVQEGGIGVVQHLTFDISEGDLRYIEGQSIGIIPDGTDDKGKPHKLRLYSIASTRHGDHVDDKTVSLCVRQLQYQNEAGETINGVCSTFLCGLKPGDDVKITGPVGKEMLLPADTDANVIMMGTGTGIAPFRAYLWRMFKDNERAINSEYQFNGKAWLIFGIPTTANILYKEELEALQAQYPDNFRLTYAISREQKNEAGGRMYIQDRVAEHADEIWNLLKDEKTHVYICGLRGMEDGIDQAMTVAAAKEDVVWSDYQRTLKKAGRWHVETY

SelFdR0978 [4] = target: T4, SelFdR0978; assay: FAD released by guanidinium chloride, absorbance at […] nm; assay type: binding; settings: FAD-bound flavoprotein as purified
EpoK (CYP167A1) = target: T5, EpoK (CYP167A1) (Sorangium cellulosum, UniProt Q9KIZ4); assay: conversion assay, reconstituted system; assay type: biochemical; settings: SelFdx1499/SelFdR0978 as redox partners
T5 construct: His-tagged, expressed in E. coli (general P450 statement)
T5 sequence (Q9KIZ4 whole entry): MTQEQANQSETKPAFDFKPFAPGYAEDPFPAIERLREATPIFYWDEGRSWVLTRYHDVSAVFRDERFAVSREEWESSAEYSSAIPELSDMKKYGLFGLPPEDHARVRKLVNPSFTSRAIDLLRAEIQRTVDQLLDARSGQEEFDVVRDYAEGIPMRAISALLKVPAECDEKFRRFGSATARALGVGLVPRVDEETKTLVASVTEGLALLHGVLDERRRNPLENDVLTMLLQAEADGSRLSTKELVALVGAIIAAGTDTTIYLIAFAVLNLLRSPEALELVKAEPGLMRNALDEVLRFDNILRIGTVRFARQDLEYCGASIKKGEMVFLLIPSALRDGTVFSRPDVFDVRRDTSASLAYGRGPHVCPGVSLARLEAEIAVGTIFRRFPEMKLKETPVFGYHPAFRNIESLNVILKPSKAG

[5] = target: T6, Bovine adrenodoxin reductase (bovine) (UniProt P08165)
T6 sequence: T3 sequence (P08165 33-492)

[6] = target: T6, Bovine adrenodoxin reductase (bovine); remark: listed apart in the source
[7] = target: plastidic-type ferredoxin reductase SelFdR0978 from Synechococcus elongatus PCC 7942 (Synechococcus elongatus PCC 7942)
[8] = target: T7, putidaredoxin reductase from Pseudomonas putida (Pseudomonas putida) (UniProt P16640)
T7 sequence: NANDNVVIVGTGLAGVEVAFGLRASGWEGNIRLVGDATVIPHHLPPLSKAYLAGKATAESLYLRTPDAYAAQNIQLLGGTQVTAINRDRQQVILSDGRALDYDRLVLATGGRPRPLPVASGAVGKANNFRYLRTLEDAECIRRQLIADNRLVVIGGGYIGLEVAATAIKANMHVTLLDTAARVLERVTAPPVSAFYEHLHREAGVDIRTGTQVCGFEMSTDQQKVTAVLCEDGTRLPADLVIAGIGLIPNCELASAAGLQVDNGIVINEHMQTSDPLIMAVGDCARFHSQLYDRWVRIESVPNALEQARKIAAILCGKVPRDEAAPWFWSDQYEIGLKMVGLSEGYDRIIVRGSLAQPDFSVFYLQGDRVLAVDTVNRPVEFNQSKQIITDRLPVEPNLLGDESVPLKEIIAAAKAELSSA

[9] = target: plastidic-type ferredoxin reductase SelFdR0978 from Synechococcus elongatus PCC 7942 (Synechococcus elongatus PCC 7942); remark: listed apart in the source
[10] = target: T7, putidaredoxin reductase from Pseudomonas putida (Pseudomonas putida); remark: listed apart in the source
[11] = electron acceptor, 1 mM NADPH or NADH
[12] = electron donor at 1 mM, DCIP as acceptor

With `CC[C@H](C)C(=O)O[C@H]1CCC=C2C=C[C@H](C)[C@H](CC[C@@H](O)C[C@@H](O)CC(=O)O)[C@H]21` the “HPLC/HRMS of products, reconstituted system” value (P450sca-2 (CYP105A3)) was “P450sca-2 produced pravastatin as the main product in all positive reactions”.

With `O=C1C(Cl)=CC(=Nc2ccc(O)cc2)C=C1Cl` [DCIP] the “DCIP reduction, absorbance at 600 nm” value [1, 11] was “SelFdR0978 was more efficient in DCIP reduction than both AdR and PdR”, the “DCIP reduction, absorbance at 600 nm” value [2, 11] was “SelFdR0978 was more efficient in DCIP reduction than both AdR and PdR” and the “DCIP reduction, absorbance at 600 nm” value (SelFdR0978 [3]; [11]) was “SelFdR0978 was more efficient in DCIP reduction than both AdR and PdR”.

With `Cc1cc2nc3c(=O)[nH]c(=O)nc-3n(C[C@H](O)[C@H](O)[C@H](O)COP(=O)(O)OP(=O)(O)OC[C@H]3O[C@@H](n4cnc5c(N)ncnc54)[C@H](O)[C@@H]3O)c2cc1C` [FAD] the “FAD released by guanidinium chloride, absorbance at 450 nm” value (SelFdR0978 [4]) was “extinction coefficients of the flavin-bound SelFdR0978”.

For `NC(=O)C1=CN([C@@H]2O[C@H](COP(=O)(O)OP(=O)(O)OC[C@H]3O[C@@H](n4cnc5c(N)ncnc54)[C@H](O)[C@@H]3O)[C@@H](O)[C@H]2O)C=CC1` [NADH], the “DCIP reduction, absorbance at 600 nm” value [1, 12] was “PdR preferred NADH to NADPH”.

With `NC(=O)C1=CN([C@@H]2O[C@H](COP(=O)(O)OP(=O)(O)OC[C@H]3O[C@@H](n4cnc5c(N)ncnc54)[C@H](OP(=O)(O)O)[C@@H]3O)[C@@H](O)[C@H]2O)C=CC1` [NADPH] the “DCIP reduction, absorbance at 600 nm” value [2, 12] was “AdR only exhibited a slightly increased activity with NADPH than with NADH” and the “DCIP reduction, absorbance at 600 nm” value (SelFdR0978 [3]; [12]) was “SelFdR0978 showed a strong preference for NADPH over NADH”.

In the case of `C/C1=C/C[C@@H](/C(C)=C/c2csc(C)n2)OC(=O)C[C@H](O)C(C)(C)C(=O)[C@H](C)[C@@H](O)[C@@H](C)CCC1` [epothilone D], the “conversion assay, reconstituted system” value (EpoK (CYP167A1)) is reported as “EpoK catalyzes the epoxidation of C12-C13 double bond in epothilone D to form epothilone B”.

Work on “Bovine adrenodoxin Adx(4-108) (domain or fragment)” yielded a Km for the redoxin in cyt c reduction (NAD(P)H, 1 nM FdR, 0-40 uM Fdx, 30 uM cyt c) [5] of 14.6 µM, a conversion rate of YC-17 by PikC (1 uM P450, 10 uM Fdx, 5 uM FdR), wild-type reference [6] of 63.8% and a conversion rate of YC-17 by PikC (1 uM P450, 10 uM Fdx, 5 uM FdR), wild-type reference [7] of 15.6%. The conversion rate of YC-17 by PikC (1 uM P450, 10 uM Fdx, 5 uM FdR), wild-type reference [8] was 16.5%.

“Fe2S2 ferredoxin SelFdx1499 from Synechococcus elongatus PCC 7942 (natural protein)” was tested, and the Km for the redoxin in cyt c reduction (NAD(P)H, 1 nM FdR, 0-40 uM Fdx, 30 uM cyt c) [9] was 14.2 µM, the conversion rate of YC-17 by PikC (1 uM P450, 10 uM Fdx, 5 uM FdR), wild-type reference [6] was 30.1% and the conversion rate of YC-17 by PikC (1 uM P450, 10 uM Fdx, 5 uM FdR), wild-type reference [7] was 99.1%. For the same molecule, the conversion rate of YC-17 by PikC (1 uM P450, 10 uM Fdx, 5 uM FdR), wild-type reference [8] was 24.7%.

B1: Adx-M1 (domain or fragment)
chain: EDKITVHFINRDGETLTTKGKIGDALLDVVVQNNLDIDGFGACEGTLACSTCHLIFEQHIFEKLEAIADEEAAMLALAYGLTDRSRLGCQICLTKAMDNMTVRVP
With B1 the conversion rate of YC-17 by PikC (1 uM P450, 10 uM Fdx, 5 uM FdR) [7] was 9.2%.

B2: Adx-M3 (domain or fragment)
chain: B1 chain with A25S, D38A, G39A, A42L, A68T, A72N, A73D, A76D
B2 showed a conversion rate of YC-17 by PikC (1 uM P450, 10 uM Fdx, 5 uM FdR) [8] of 7.2%.

B3: Adx-M2 (domain or fragment)
chain: B1 chain with A25S, D38A, E44A, L47A, A68T, A72N, A73D
B3 showed a conversion rate of YC-17 by PikC (1 uM P450, 10 uM Fdx, 5 uM FdR) [6] of 67.8%.

B4: putidaredoxin from Pseudomonas putida (natural protein)
chain: SKVVYVSHDGTRRELDVADGVSLMQAAVSNGIYDIVGDCGGSASCATCHVYVNEAFTDKVPAANEREIGMLECVTAELKPNSRLCCQIIMTPELDGIVVDVPDRQW
For B4, the Km for the redoxin in cyt c reduction (NAD(P)H, 1 nM FdR, 0-40 uM Fdx, 30 uM cyt c) [10] was 22.1 µM, the conversion rate of YC-17 by PikC (1 uM P450, 10 uM Fdx, 5 uM FdR), wild-type reference [6] was 0% and the conversion rate of YC-17 by PikC (1 uM P450, 10 uM Fdx, 5 uM FdR), wild-type reference [7] was 0%. The conversion rate of YC-17 by PikC (1 uM P450, 10 uM Fdx, 5 uM FdR), wild-type reference [8] was 15.6%.

Source: article PMC9357085, “Three pairs of surrogate redox partners comparison for Class I cytochrome P450 enzyme activity reconstitution” (Communications Biology, 2022)
